Measured values taken from publication PMC1919475.
Each block holds one substance with its values, some of them ahead of it.

Key:
[1] = molecular target: ECFP-CSB expressed in CS1AN.S3.G2 cells (human) (UniProt Q03468); assay: co-IP
[2] = molecular target: Cockayne syndrome B (CSB) protein, full-length, purified recombinant (human) (UniProt Q03468); assay: ELISA
[3] = molecular target: APE1, major human apurinic/apyrimidinic (AP) endonuclease, full-length, purified recombinant (human) (UniProt P27695); assay: ELISA
[4] = molecular target: APE1, endogenous in ECFP-CSB-CS1AN cell extracts (human (endogenous in CS1AN fibroblasts)) (UniProt P27695); assay: co-IP

percent co-immunoprecipitated [1]: 5 to 50%
Substance: APE1, endogenous in ECFP-CSB-CS1AN cell extracts (from UniProt P27695 1-318) (enzyme)

EC50 [2]: > 20 nM
Substance: APE1, major human apurinic/apyrimidinic (AP) endonuclease, full-length, purified recombinant (from UniProt P27695 1-318) (enzyme)

EC50 [3]: > 4.5 nM
Substance: Cockayne syndrome B (CSB) protein, full-length, purified recombinant (from UniProt Q03468 1-1493) (natural protein)

percent co-immunoprecipitated [4]: 5 to 50%
Substance: ECFP-CSB expressed in CS1AN.S3.G2 cells (from UniProt Q03468 1-1493) (natural protein)
